# Results taken from article PMC2688778 (Structure (London, England : 1993), 2009).
# B1: RecE^606 (P658L) (residues 606-866 of E. coli RecE protein with the P658L mutation) (domain or fragment, UniProt P15032 606-866, looked up)
# chain: ENYHAGPGISKSQLDDIADTPALYLWRKNAPVDTTKTKTLDLGTAFHCRVLELEEFSNRFIVAPEFNRRTNAGKEEEKAFLMECASTGKTVITAEEGRKIELMYQSVMALPLGQWLVESAGHAESSIYWEDPETGILCRCRPDKIIPEFHWIMDVKTTADIQRFKTAYYDYRYHVQDAFYSDGYEAQFGVQPTFVFLVASTTIECGRYPVEIFMMGEEAKLAGQQEYHRNLRTLSDCLNTDEWPAIKTLSLPRWAKEYAND
# Target: the molecule itself
# Assay: crystal structure
protein,measurement,value
B1,stoichiometry N,4
